Assays:
[1] = biological target: T1, daf-12 (F11A1.3) (Caenorhabditis elegans) (UniProt G5EFF5)
T1 sequence: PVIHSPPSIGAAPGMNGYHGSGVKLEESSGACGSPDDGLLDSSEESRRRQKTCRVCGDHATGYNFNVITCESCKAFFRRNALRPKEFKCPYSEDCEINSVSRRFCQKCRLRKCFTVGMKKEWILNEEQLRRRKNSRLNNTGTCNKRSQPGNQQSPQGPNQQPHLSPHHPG

[2] = biological target: T2, unc-120 (D1081.2) (Caenorhabditis elegans) (UniProt Q18955)
T2 sequence: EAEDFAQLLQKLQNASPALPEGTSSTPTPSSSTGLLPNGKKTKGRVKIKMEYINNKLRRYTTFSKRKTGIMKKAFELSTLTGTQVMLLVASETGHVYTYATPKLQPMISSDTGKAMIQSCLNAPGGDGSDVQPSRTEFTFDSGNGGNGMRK

[3] = biological target: T3, T07C12.11 (T07C12.11) (Caenorhabditis elegans) (UniProt G5EGG9)
T3 sequence: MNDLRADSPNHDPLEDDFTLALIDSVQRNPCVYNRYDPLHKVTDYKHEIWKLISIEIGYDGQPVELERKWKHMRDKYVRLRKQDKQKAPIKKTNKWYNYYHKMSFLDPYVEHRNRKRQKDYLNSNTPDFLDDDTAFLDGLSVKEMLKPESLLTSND

[4] = biological target: T4, nhr-46 (C45E5.6) (Caenorhabditis elegans) (UniProt Q95QR2)
T4 sequence: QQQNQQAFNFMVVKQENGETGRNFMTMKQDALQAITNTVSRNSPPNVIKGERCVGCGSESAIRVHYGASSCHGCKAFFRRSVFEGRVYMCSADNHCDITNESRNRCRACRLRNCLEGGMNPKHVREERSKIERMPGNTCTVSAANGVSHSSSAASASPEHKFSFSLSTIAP

[5] = biological target: T5, nhr-42 (C33G8.6) (Caenorhabditis elegans) (UniProt O76828)
T5 sequence: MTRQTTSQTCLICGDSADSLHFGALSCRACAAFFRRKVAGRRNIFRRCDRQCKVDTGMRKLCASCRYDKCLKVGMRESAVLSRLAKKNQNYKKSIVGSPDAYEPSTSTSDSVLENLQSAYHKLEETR

[6] = biological target: nhr-34 (F58G6.5) (Caenorhabditis elegans) (UniProt Q21006)
[7] = biological target: T6, nhr-142 (F44E7.8) (Caenorhabditis elegans) (UniProt J7SF93)
T6 sequence: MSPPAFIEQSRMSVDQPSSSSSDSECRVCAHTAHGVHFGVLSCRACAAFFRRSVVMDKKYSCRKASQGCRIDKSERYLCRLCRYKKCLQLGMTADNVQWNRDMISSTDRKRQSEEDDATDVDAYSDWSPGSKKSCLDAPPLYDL

[8] = biological target: T7, ceh-23 (ZK652.5) (Caenorhabditis elegans) (UniProt P34663)
T7 sequence: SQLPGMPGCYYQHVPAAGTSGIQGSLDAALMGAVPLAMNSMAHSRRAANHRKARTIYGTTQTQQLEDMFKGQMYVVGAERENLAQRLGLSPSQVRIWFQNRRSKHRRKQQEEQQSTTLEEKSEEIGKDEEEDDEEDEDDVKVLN

[9] = biological target: T8, ceh-18 (ZC64.3) (Caenorhabditis elegans) (UniProt P41934)
T8 sequence: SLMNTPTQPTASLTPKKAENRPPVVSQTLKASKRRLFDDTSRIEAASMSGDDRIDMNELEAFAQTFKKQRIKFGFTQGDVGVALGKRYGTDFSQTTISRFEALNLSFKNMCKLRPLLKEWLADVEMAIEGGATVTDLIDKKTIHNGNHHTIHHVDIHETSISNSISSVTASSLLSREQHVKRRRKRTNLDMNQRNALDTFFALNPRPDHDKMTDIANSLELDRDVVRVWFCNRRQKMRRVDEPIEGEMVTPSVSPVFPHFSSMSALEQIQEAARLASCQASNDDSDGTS

[10] = biological target: T9, C07E3.6 (C07E3.6) (Caenorhabditis elegans) (UniProt Q17792)
T9 sequence: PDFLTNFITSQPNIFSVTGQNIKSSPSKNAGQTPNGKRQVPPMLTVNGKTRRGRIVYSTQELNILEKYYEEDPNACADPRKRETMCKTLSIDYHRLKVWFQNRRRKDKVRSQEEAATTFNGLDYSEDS

[11] = biological target: T10, atf-6 (F45E6.2) (Caenorhabditis elegans) (UniProt Q20435)
T10 sequence: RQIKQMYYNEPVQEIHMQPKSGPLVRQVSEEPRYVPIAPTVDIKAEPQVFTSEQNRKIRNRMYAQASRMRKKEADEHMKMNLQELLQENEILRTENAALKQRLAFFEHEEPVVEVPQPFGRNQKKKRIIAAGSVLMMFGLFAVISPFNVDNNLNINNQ

Chain of nhr-34 (F58G6.5) (Caenorhabditis elegans) (Q21006 99-268): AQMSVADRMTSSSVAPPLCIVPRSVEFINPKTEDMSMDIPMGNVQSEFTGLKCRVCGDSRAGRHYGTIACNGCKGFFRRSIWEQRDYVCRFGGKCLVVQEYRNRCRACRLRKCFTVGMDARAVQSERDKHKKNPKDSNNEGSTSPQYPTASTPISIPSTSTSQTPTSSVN

AAAGTGCA (double strand) [8-mer AAAGTGCA]
binding signal (PBM E-score (-0.5 to 0.5)) [1]: 0.498

AAATAAGG (double strand) [8-mer AAATAAGG]
binding signal (PBM E-score (-0.5 to 0.5)) [2]: 0.464

AAATATGG (double strand) [8-mer AAATATGG]
binding signal (PBM E-score (-0.5 to 0.5)) [2]: 0.474

AACGTAAG (double strand) [8-mer AACGTAAG]
binding signal (PBM E-score (-0.5 to 0.5)) [3]: 0.486

AAGATCAT (double strand) [8-mer AAGATCAT]
binding signal (PBM E-score (-0.5 to 0.5)) [4]: 0.476

AAGTACAA (double strand) [8-mer AAGTACAA]
binding signal (PBM E-score (-0.5 to 0.5)) [1]: 0.493

AAGTACAT (double strand) [8-mer AAGTACAT]
binding signal (PBM E-score (-0.5 to 0.5)) [1]: 0.495

AAGTGCAA (double strand) [8-mer AAGTGCAA]
binding signal (PBM E-score (-0.5 to 0.5)) [1]: 0.496

AAGTGCAG (double strand) [8-mer AAGTGCAG]
binding signal (PBM E-score (-0.5 to 0.5)) [1]: 0.492

AAGTGCAT (double strand) [8-mer AAGTGCAT]
binding signal (PBM E-score (-0.5 to 0.5)) [1]: 0.495

ACACTACG (double strand) [8-mer ACACTACG]
binding signal (PBM E-score (-0.5 to 0.5)) [5]: 0.493

ACCTTATA (double strand) [8-mer ACCTTATA]
binding signal (PBM E-score (-0.5 to 0.5)) [2]: 0.466

ACGTAAGA (double strand) [8-mer ACGTAAGA]
binding signal (PBM E-score (-0.5 to 0.5)) [3]: 0.486

ACGTAAGC (double strand) [8-mer ACGTAAGC]
binding signal (PBM E-score (-0.5 to 0.5)) [3]: 0.487

ACGTAAGG (double strand) [8-mer ACGTAAGG]
binding signal (PBM E-score (-0.5 to 0.5)) [3]: 0.488

ACTACGAA (double strand) [8-mer ACTACGAA]
binding signal (PBM E-score (-0.5 to 0.5)) [5]: 0.486

ACTACGAT (double strand) [8-mer ACTACGAT]
binding signal (PBM E-score (-0.5 to 0.5)) [5]: 0.482

AGACTACG (double strand) [8-mer AGACTACG]
binding signal (PBM E-score (-0.5 to 0.5)) [5]: 0.492

AGATCAAA (double strand) [8-mer AGATCAAA]
binding signal (PBM E-score (-0.5 to 0.5)) [4]: 0.473

AGATCAAG (double strand) [8-mer AGATCAAG]
binding signal (PBM E-score (-0.5 to 0.5)) [4]: 0.466

AGTCACAT (double strand) [8-mer AGTCACAT]
binding signal (PBM E-score (-0.5 to 0.5)) [5]: 0.481

ATACGTAA (double strand) [8-mer ATACGTAA]
binding signal (PBM E-score (-0.5 to 0.5)) [3]: 0.491

ATATAAGG (double strand) [8-mer ATATAAGG]
binding signal (PBM E-score (-0.5 to 0.5)) [2]: 0.478

ATATATGG (double strand) [8-mer ATATATGG]
binding signal (PBM E-score (-0.5 to 0.5)) [2]: 0.486

ATGATCTC (double strand) [8-mer ATGATCTC]
binding signal (PBM E-score (-0.5 to 0.5)) [4]: 0.46

CAAGATCA (double strand) [8-mer CAAGATCA]
binding signal (PBM E-score (-0.5 to 0.5)) [4]: 0.463
binding signal (PBM E-score (-0.5 to 0.5)) [6]: 0.474

CAAGTGCA (double strand) [8-mer CAAGTGCA]
binding signal (PBM E-score (-0.5 to 0.5)) [1]: 0.493

CACTACGA (double strand) [8-mer CACTACGA]
binding signal (PBM E-score (-0.5 to 0.5)) [5]: 0.485

CAGTCACA (double strand) [8-mer CAGTCACA]
binding signal (PBM E-score (-0.5 to 0.5)) [7]: 0.483

CATAATTA (double strand) [8-mer CATAATTA]
binding signal (PBM E-score (-0.5 to 0.5)) [8]: 0.493
binding signal (PBM E-score (-0.5 to 0.5)) [9]: 0.483
binding signal (PBM E-score (-0.5 to 0.5)) [10]: 0.495

CATATAAG (double strand) [8-mer CATATAAG]
binding signal (PBM E-score (-0.5 to 0.5)) [2]: 0.466

CATATATG (double strand) [8-mer CATATATG]
binding signal (PBM E-score (-0.5 to 0.5)) [2]: 0.468

CCATAAAA (double strand) [8-mer CCATAAAA]
binding signal (PBM E-score (-0.5 to 0.5)) [2]: 0.459

CCATATAA (double strand) [8-mer CCATATAA]
binding signal (PBM E-score (-0.5 to 0.5)) [2]: 0.465

CCTTATAA (double strand) [8-mer CCTTATAA]
binding signal (PBM E-score (-0.5 to 0.5)) [2]: 0.474

CGAGATCA (double strand) [8-mer CGAGATCA]
binding signal (PBM E-score (-0.5 to 0.5)) [4]: 0.46
binding signal (PBM E-score (-0.5 to 0.5)) [6]: 0.472

CGTAGTCA (double strand) [8-mer CGTAGTCA]
binding signal (PBM E-score (-0.5 to 0.5)) [5]: 0.48

CTTACGCA (double strand) [8-mer CTTACGCA]
binding signal (PBM E-score (-0.5 to 0.5)) [3]: 0.487

CTTACGTA (double strand) [8-mer CTTACGTA]
binding signal (PBM E-score (-0.5 to 0.5)) [3]: 0.495
binding signal (PBM E-score (-0.5 to 0.5)) [11]: 0.456

CTTGCGCA (double strand) [8-mer CTTGCGCA]
binding signal (PBM E-score (-0.5 to 0.5)) [3]: 0.489

CTTGCGTA (double strand) [8-mer CTTGCGTA]
binding signal (PBM E-score (-0.5 to 0.5)) [3]: 0.487

GACTACGA (double strand) [8-mer GACTACGA]
binding signal (PBM E-score (-0.5 to 0.5)) [5]: 0.487

GACTACGC (double strand) [8-mer GACTACGC]
binding signal (PBM E-score (-0.5 to 0.5)) [5]: 0.484

GAGACCAA (double strand) [8-mer GAGACCAA]
binding signal (PBM E-score (-0.5 to 0.5)) [6]: 0.475

GAGTCACA (double strand) [8-mer GAGTCACA]
binding signal (PBM E-score (-0.5 to 0.5)) [7]: 0.485

GAGTTCAA (double strand) [8-mer GAGTTCAA]
binding signal (PBM E-score (-0.5 to 0.5)) [6]: 0.471

GCCTTATA (double strand) [8-mer GCCTTATA]
binding signal (PBM E-score (-0.5 to 0.5)) [2]: 0.47

GGAGATCA (double strand) [8-mer GGAGATCA]
binding signal (PBM E-score (-0.5 to 0.5)) [6]: 0.473

GTCATAAA (double strand) [8-mer GTCATAAA]
binding signal (PBM E-score (-0.5 to 0.5)) [7]: 0.484

GTTACGTA (double strand) [8-mer GTTACGTA]
binding signal (PBM E-score (-0.5 to 0.5)) [3]: 0.49

TAAGTACA (double strand) [8-mer TAAGTACA]
binding signal (PBM E-score (-0.5 to 0.5)) [1]: 0.492

TAAGTGCA (double strand) [8-mer TAAGTGCA]
binding signal (PBM E-score (-0.5 to 0.5)) [1]: 0.496

TACCATAA (double strand) [8-mer TACCATAA]
binding signal (PBM E-score (-0.5 to 0.5)) [2]: 0.462

TACGTAAA (double strand) [8-mer TACGTAAA]
binding signal (PBM E-score (-0.5 to 0.5)) [3]: 0.488

TAGATCAA (double strand) [8-mer TAGATCAA]
binding signal (PBM E-score (-0.5 to 0.5)) [4]: 0.465

TATAAGGA (double strand) [8-mer TATAAGGA]
binding signal (PBM E-score (-0.5 to 0.5)) [2]: 0.472

TATATGGA (double strand) [8-mer TATATGGA]
binding signal (PBM E-score (-0.5 to 0.5)) [2]: 0.478

TATGCATA (double strand) [8-mer TATGCATA]
binding signal (PBM E-score (-0.5 to 0.5)) [9]: 0.497

TGCATAAA (double strand) [8-mer TGCATAAA]
binding signal (PBM E-score (-0.5 to 0.5)) [9]: 0.476

TTATGCAA (double strand) [8-mer TTATGCAA]
binding signal (PBM E-score (-0.5 to 0.5)) [9]: 0.476

From paper PMC4434323
